The record followed here is patent publication US20110129478A1.

The target in experiment [1] is human CD179b protein on the cell membrane surface of human cancer cell lines (human) (UniProt P15814). Briefly: flow cytometry on human cancer cell lines expressing CD179b, against mouse IgG2a isotype control. On the technique in general: In flow cytometry, cells or beads pass a laser one at a time.
Experiment [2] has the same target. The experiment in a line: cell-based or functional assay.

Chain of UniProt P15814 (P15814 38-213): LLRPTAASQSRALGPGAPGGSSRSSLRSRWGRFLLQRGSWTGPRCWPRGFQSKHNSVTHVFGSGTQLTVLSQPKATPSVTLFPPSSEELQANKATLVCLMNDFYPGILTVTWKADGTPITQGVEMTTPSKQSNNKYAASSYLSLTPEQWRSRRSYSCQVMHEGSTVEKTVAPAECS

In the case of “mouse anti-human CD179b antibody (clone name: GA170; manufactured by Santa Cruz Biotechnology)”, in experiment [1], the fluorescence intensity higher than that of the isotype control was greater than 10%. In experiment [2], this substance came in with an ADCC activity (chromium 51 release), BDCM cells of 32.3%; an ADCC activity (chromium 51 release), Namalwa cells of 32.6%; an ADCC activity (chromium 51 release), RPMI1788 cells of 28.3%; a CDC activity (chromium 51 release), BDCM cells of 21.2%. In experiment [2], this substance gave a CDC activity (chromium 51 release), Namalwa cells of 30.5% and a CDC activity (chromium 51 release), RPMI1788 cells of 30.5%.
